Measurements from paper doi:10.1101/2024.01.23.576903.

Target: ζ subunit (F420-reductase subunit) of the ACDS CODH subcomplex from Candidatus Ethanoperedens thermophilum (Candidatus Ethanoperedens thermophilum)
Experiment: crystal structure

With “ζ subunit (F420-reductase subunit) of the ACDS CODH subcomplex from Candidatus Ethanoperedens thermophilum (natural protein)” as the substance, how does the stoichiometry N read?
Its stoichiometry N is 2.
